For one molecule, Kd results are on record in publication PMC9908899, “TRIM40 is a pathogenic driver of inflammatory bowel disease subverting intestinal barrier integrity” (Nature Communications, 2023).

This assay deals with T1, ROCK1 kinase domain (residue 1-415) protein (human, UniProt Q13464 1-415).
T1 construct: ROCK1 kinase domain, residues 1-415, expressed in Sf9 cells; source: Spodoptera frugiperda cells (Sf9)
Description: SPR; Biacore T200; ROCK1 kinase domain immobilised on CM5 chip by amine coupling (3400 RU); full-length TRIM40 injected at eight concentrations, 30 μl/min, HBS-EP+ buffer (10 mM HEPES, 150 mM NaCl, 3 mM EDTA, 0.05% P20), 25 °C. To be noted: both partners purified. (Surface plasmon resonance follows binding to a sensor surface in real time, without labels.)

T1 sequence (Q13464 1-415): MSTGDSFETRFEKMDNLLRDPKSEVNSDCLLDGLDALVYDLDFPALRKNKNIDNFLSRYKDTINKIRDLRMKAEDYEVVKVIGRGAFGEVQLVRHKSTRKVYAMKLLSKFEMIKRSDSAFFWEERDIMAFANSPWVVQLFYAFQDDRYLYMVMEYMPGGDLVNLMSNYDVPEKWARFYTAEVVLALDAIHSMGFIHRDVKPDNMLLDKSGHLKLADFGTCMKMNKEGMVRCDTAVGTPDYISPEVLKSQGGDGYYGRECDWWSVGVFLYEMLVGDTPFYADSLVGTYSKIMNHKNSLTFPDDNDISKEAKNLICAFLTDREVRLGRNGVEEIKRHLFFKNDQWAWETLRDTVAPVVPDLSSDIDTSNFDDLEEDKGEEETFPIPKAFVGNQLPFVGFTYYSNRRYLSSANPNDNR

B1: Full length TRIM40 protein (recombinant, for SPR) (natural protein, human, UniProt Q6P9F5 1-258, looked up)
chain: MIPLQKDNQEEGVCPICQESLKEAVSTNCGHLFCRVCLTQHVEKASASGVFCCPLCRKPCSEEVLGTGYICPNHQKRVCRFCEESRLLLCVECLVSPEHMSHHELTIENALSHYKERLNRRSRKLRKDIAELQRLKAQQEKKLQALQFQVDHGNHRLEAGPESQHQTREQLGALPQQWLGQLEHMPAEAARILDISRAVTQLRSLVIDLERTAKELDTNTLKNAGDLLNRSAPQKLEVIYPQLEKGVSELLLQPPQKL
notes: full length TRIM40 expressed in E. coli BL21 (DE3); source: Escherichia coli BL21 (DE3)
B1 registered a Kd of 2250 nM.

The term Kd denotes the constant that tells how readily two partners part at equilibrium. A higher Kd goes with a looser complex.
